Reference: PMC4254552 (Developmental cell, 2014)

T1: HIM-3 part of the chimeric protein HIM-3:HTP-3 motif #4 (C. elegans, UniProt G5EBG0 1-276)
T1 sequence (looked up): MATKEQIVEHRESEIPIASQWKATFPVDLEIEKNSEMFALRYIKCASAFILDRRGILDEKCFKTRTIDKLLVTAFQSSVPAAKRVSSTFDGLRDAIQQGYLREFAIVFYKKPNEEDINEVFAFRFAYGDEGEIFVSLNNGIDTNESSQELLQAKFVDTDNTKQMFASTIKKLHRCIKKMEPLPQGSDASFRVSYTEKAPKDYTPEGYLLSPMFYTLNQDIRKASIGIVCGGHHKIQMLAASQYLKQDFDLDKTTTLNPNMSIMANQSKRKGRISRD

T2: HIM-3-6His (C. elegans, UniProt G5EBG0 1-291)
T2 sequence (looked up): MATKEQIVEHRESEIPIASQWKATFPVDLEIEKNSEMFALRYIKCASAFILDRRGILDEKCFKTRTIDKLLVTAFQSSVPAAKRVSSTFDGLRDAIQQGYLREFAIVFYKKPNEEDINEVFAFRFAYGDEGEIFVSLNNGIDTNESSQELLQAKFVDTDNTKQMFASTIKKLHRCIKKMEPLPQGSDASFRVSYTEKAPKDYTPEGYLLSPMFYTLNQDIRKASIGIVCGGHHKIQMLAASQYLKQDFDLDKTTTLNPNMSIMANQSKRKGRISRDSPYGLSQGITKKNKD


Assays:
[1] = target: T1, HIM-3 part of the chimeric protein …; experiment: crystal structure
HIM-3-6His = target: T2, HIM-3-6His

Row | binding result [1] | stoichiometry N (HIM-3-6His) | Binder
1 | binds |  | RHYGRVSSILDVAGS (peptide, UniProt O01820 649-663, looked up) [HTP-3 motif #4 (residues 649-663) as placed in the HIM-3 chimera]
2 |  | 1 HTP-1 per HIM-3 | HTP-1 (untagged, co-expressed) (natural protein, C. elegans, UniProt Q20305 1-352, looked up) MAPLETIYDESLNKSADSIDDKKWSKLFPRIVSDPDRSSNFMTRAIYVAFSAVLRNRNILGQEYFTKNYITEKLKCMTLCFRNPRSNQIAQLLRNAGDATKDGFLKEVSLVITNNEGDLEAIEVFSMKFIYFENGGVVARLSTDKNGQEDPHFAKLAQLVYEGGDSVRDQMVTIVRSVQFLCTKVLEPLPEEFTANFRLEYTNDAPSNFRIDGFEDSSTFYTLPDDIQSATIGHLRPGCHAANMECWSMLMSDSYEAELTLKRHLDKVSDRHGFNPVNVLYKSFNSEDSDTSLSQATTESVNDQGGNETSPVDDITESLEKAQMSPIQTRPTTRRGADGSKTRSSPYSRSCK
3 |  | 1 HTP-2 per HIM-3 | HTP-2 (co-expressed; tag not told) (natural protein, C. elegans, UniProt Q95XC8 1-352, looked up) MAPLENNYNESLNKSKDAIDDKTWSKLFPSIVSDPDRSSNFMIRAIYVVFSAVLRQRNILEKEYFSKNYITENLSCMTLSFKNLRAHQIAQLLRAAGDATKDGFLKEISLVVTEHDGDVEAIEVFSMKFIYFENGGVVARLSTDNNDQEDPHFAELAQLRYEGAESVRDQMVTIVRSVQFLCTKVLEPLPAEFTANFRLKYTNDAPSNFRIDGFDDSSTFYTLPDGIQSVTIGHLRPGHHAAHMQCWSKSMSDSYAAELTLKGHLDKVSDMYAFNPVNVLYKSFNSEDTDPGLSQDTTESANDQGGNVTSPVDNITDSLEKTQMSPIKMRPTTRRGADDSKTRSSPYSRSRK
